Target: T1, Mycobacterium proteasomal ATPase (Mpa), untagged recombinant (Mycobacterium tuberculosis, UniProt P9WQN5 1-609)
T1 sequence: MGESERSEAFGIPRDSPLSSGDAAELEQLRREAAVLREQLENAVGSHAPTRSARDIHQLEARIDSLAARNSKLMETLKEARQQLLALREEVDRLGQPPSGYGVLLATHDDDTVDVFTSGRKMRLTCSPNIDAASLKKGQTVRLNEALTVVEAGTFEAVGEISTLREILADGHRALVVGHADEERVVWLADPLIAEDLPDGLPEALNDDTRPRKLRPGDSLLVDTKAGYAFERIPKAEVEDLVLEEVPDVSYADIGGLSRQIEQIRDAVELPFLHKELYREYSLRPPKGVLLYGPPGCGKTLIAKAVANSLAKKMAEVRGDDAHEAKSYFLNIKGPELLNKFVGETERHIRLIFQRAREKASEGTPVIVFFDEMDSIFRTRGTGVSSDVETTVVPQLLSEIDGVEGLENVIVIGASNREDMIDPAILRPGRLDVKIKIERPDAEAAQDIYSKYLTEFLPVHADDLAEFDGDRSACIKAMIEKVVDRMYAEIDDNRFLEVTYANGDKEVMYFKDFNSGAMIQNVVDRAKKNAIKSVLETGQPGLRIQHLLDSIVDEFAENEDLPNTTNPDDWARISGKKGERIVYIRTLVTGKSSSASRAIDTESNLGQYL
Assay: Ni-NTA agarose pull-down, Coomassie gel and anti-Mpa immunoblot

B1: [change] (other)
chain: MAQEQTKRGGGGGDDDDIAGSTAAGQERREKLTEETDDLLDEIDDVLEENAEDFVRAYVQKGGQ
binding result: binds
